US20100004432, “APTAMER AGAINST MIDKINE AND USE THEREOF” (RIBOMIC INC., published 2010)
Residue numbers refer to the chain shown, from its start.

T1: midkine (full-length) (Homo sapiens, UniProt P21741 P21741:23-143)
T1 sequence: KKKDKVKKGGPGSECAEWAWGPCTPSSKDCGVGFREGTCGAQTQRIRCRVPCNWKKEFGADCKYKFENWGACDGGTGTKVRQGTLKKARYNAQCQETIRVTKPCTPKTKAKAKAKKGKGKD

B1: SEQ ID NO:19 (ssRNA)
RNA: GGGAGAGGAACGUACGAGGAGUAGCCGGAAAGAAGGCGGCGUAC
modifications: 2'-F pyrimidines
B2: SEQ ID NO:12 (ssRNA)
RNA: GGGAGAGGAGAAGAGGAACGCUGCACGAGGAGUAGCCGGAAAGAAGGCGGCGUGCAGC
modifications: 2'-F pyrimidines
B3: SEQ ID NO:17 (ssRNA)
RNA: GGGAGAGGAACGCUACGAGGAGUAGCCGGAAAGAAGGCGGCGUAGC
modifications: 2'-F pyrimidines
B4: SEQ ID NO:20 (ssRNA)
RNA: GGGAGAGGAACGACGAGGAGUAGCCGGAAAGAAGGCGGCGUC
modifications: 2'-F pyrimidines
B5: SEQ ID NO:9 (ssRNA)
RNA: GGGAGAGGAGAAGAGGAACGUGCUCUGUACGCCGGAAAGAAGGUGUGUAGAGGACAGGAAUGAGGA
modifications: 2'-F pyrimidines
B6: SEQ ID NO:10 (ssRNA)
RNA: GGGAGAGGAGAAGAGGAACGUGCUCUGUACGAGGAGUAGCCGAAAGGCGGUGUGUAGAGGACAGGAAUGAGGA
modifications: 2'-F pyrimidines
B7: SEQ ID NO:18 (ssRNA)
RNA: GGGCUACGAGGAGUAGCCGGAAAGAAGGCGGCGUAGC
modifications: 2'-F pyrimidines
B8: SEQ ID NO:13 (ssRNA)
RNA: GGGAGAGGAACGCUGCACGAGGAGUAGCCGGAAAGAAGGCGGCGUGCAGC
modifications: 2'-F pyrimidines
B9: SEQ ID NO:11 (ssRNA)
RNA: GGGAGAGGAGAAGAGGAACGUGCUCUGCACGAGGAGUAGCCGGAAAGAAGGCGGCGUGCAGAGGACAGGAAUGAGGA
modifications: 2'-F pyrimidines
B10: SEQ ID NO:6 (ssRNA)
RNA: GGGAGAGGAGAAGAGGAACGUGCUCUGUACGAGGAGUAGCCGGAAAGAAGGCGGUGUGUAGAGGACA
modifications: 2'-F pyrimidines
B11: SEQ ID NO:7 (ssRNA)
RNA: GGGAACGUGCUCUGUACGAGGAGUAGCCGGAAAGAAGGCGGUGUGUAGAGGACAGGAAUGAGGA
modifications: 2'-F pyrimidines
B12: SEQ ID NO:14 (ssRNA)
RNA: GGGAGAGGAGAAGAGGAACGCUACGAGGAGUAGCCGGAAAGAAGGCGGCGUAGC
modifications: 2'-F pyrimidines
B13: SEQ ID NO:16 (ssRNA)
RNA: GGGAGAGGAGAAGAGGAACGCUGCACGAGGGUAGCCGGAAAGAAGGCGGCGUGCAGC
modifications: 2'-F pyrimidines
B14: SEQ ID NO:8 (ssRNA)
RNA: GGGAGAGGAGAAGAGGAACGCUGUACGAGGAGUAGCCGGAAAGAAGGCGGUGUGUAGCAGGAAUGAGGA
modifications: 2'-F pyrimidines
B15: SEQ ID NO:15 (ssRNA)
RNA: GGGAGAGGAGAAGAGGAACGCUGCACGAGGAGUAGCCGGAAAGGGCGGCGUGCAGC
modifications: 2'-F pyrimidines
B16: SEQ ID NO:51 (ssRNA)
RNA: GGGAAGGAGAGAGGAAGUGCACAGGGGUUGGUGUCGGGUGCACAGUAUAAG
modifications: 2'-F pyrimidines
B17: SEQ ID NO:52 (ssRNA)
RNA: B16 RNA with G3A, A5G, G7A, A8G, G9A
modifications: 2'-F pyrimidines
B18: SEQ ID NO:53 (ssRNA)
RNA: B16 RNA with G9A
modifications: 2'-F pyrimidines
B19: SEQ ID NO:60 (ssRNA)
RNA: GGGAAGGAGUGCACAGGGGUUGGUGUCGGGUGCAC
modifications: 2'-F pyrimidines
B20: SEQ ID NO:54 (ssRNA)
RNA: GGGAGAGGAGAAGAGGAAGUGCACAGGGGUUGGUGUCGGGUGCAC
modifications: 2'-F pyrimidines; 5' single strand (nt 1-18) all G 2'-F and all A 2'-OMe
B21: SEQ ID NO:63 (ssRNA)
RNA: B20 RNA with A25C, G26C
modifications: 2'-F pyrimidines
B22: SEQ ID NO:45 (ssRNA)
RNA: B20 RNA
modifications: 2'-F pyrimidines
B23: SEQ ID NO:59 (ssRNA)
RNA: GGGUGCACAGGGGUUGGUGUCGGGUGCAC
modifications: 2'-F pyrimidines
B24: SEQ ID NO:47 (ssRNA)
RNA: GGGAGAGGAGAAGAGGAAGUGUGCACAGGGGUGGUGUCGGGUGCAUAC
modifications: 2'-F pyrimidines
B25: SEQ ID NO:48 (ssRNA)
RNA: B24 RNA with G33U
modifications: 2'-F pyrimidines
B26: SEQ ID NO:49 (ssRNA)
RNA: B24 RNA with G33U, U35G
modifications: 2'-F pyrimidines
B27: SEQ ID NO:46 (ssRNA)
RNA: GGGAGAGGAGAAGAGGAAGUGCGCGCAGGGGUUGGUGUCGGGCGCGUAC
modifications: 2'-F pyrimidines
B28: SEQ ID NO:66 (ssRNA)
RNA: GGAAGGAGGAAGUGCACAGGGGUUGGUGUCGGGUGCAC
modifications: g(F)g(F)a(M)a(M)g(F)g(F)a(M)g(F)g(F)a(M)a(M)g(M)u(F)g(M)c(F)a(M)c(F)a(M)gg(M)g(M)g(M)u(F)u(F)g(M)g(M)u(F)g(M)u(F)c(F)g(F)g(F)g(M)u(F)g(M)c(F)a(M)c(F); F=2'-F M=2'-OMe
B29: SEQ ID NO:67 (ssRNA)
RNA: B28 RNA
modifications: gga(M)a(M)gga(M)gga(M)a(M)g(M)u(F)g(M)c(F)a(M)c(F)aggg(M)g(M)u(F)u(F)g(M)g(M)u(F)g(M)u(F)c(F)gggu(F)g(M)c(F)a(M)c(F); F=2'-F M=2'-OMe
B30: SEQ ID NO:55 (ssRNA)
RNA: GGGAGAGGAGGAGGAAGUGCACAGGGGUUGGUGUCGGGUGCAC
modifications: 2'-F pyrimidines
B31: SEQ ID NO:50 (ssRNA)
RNA: B30 RNA with G5A, A6G, G8A, G10A
modifications: 2'-F pyrimidines
B32: SEQ ID NO:58 (ssRNA)
RNA: B30 RNA with G11A, G14A, A15G, A16G
modifications: 2'-F pyrimidines
B33: SEQ ID NO:57 (ssRNA)
RNA: B30 RNA with G11A, G14A
modifications: 2'-F pyrimidines
B34: SEQ ID NO:56 (ssRNA)
RNA: B30 RNA with G11A
modifications: 2'-F pyrimidines
B35: SEQ ID NO:61 (ssRNA)
RNA: GGGAAGGAGGAAGUGCACAGGGGUUGGUGUCGGGUGCAC
modifications: 2'-F pyrimidines
B36: SEQ ID NO:68 (ssRNA)
RNA: B35 RNA with U28A
modifications: 2'-F pyrimidines; 2'-OMe on part of purines (5' strand A, stem purines, loop G, A28)
B37: SEQ ID NO:70 (ssRNA)
RNA: B35 RNA with U24A
modifications: 2'-F pyrimidines; 2'-OMe on part of purines (5' strand A, stem purines, loop G, A24)
B38: SEQ ID NO:62 (ssRNA)
RNA: B35 RNA with A5G, G6A, A8G, G9A
modifications: 2'-F pyrimidines
B39: SEQ ID NO:69 (ssRNA)
RNA: B35 RNA with U25A
modifications: 2'-F pyrimidines; 2'-OMe on part of purines (5' strand A, stem purines, loop G, A25)
B40: SEQ ID NO:44 (ssRNA)
RNA: GGGAGAGGAGAAGAGGAAGUUGCACAGGGGUUGGUGUCGGGUGCAAC
modifications: 2'-F pyrimidines

The binders below were run against T1, midkine (full-length) (assay: cell_activity; 500 nM RNA). Settings: tags: expressed in yeast.
Procedure: Chem. 276 (19), 15868-15875, 2001). […] 30 μL of 1.5 μM midkine was applied to the outer surface of the membrane of Chemotaxicell (membrane pore diameter 8 μm, manufactured by Kurabo) to immobilize the midkine to the outer surface of the membrane. The midkine-immobilized Chemotaxicell was placed on a 24-well culture plate containing 500 μL of a medium (supplemented with 0.3% bovine serum albumin, Dulbecco's Modified Eagle's medium) supplemented with each RNA aptamer added thereto at 100 nM. 200 μL of UMR106 cells were placed in the inner layer of the Chemotaxicell chamber at a density of 1×10⁶ cells/mL, and cultured at 37° C. for 4 hours. The cells remaining in the inner layer of the Chemotaxicell chamber were removed, and the cells that had infiltrated and adhered to the midkine-applied surface were fixed with methanol. The Chemotaxicell chamber was immersed in a 1% aqueous solution of Crystal Violet for 30 minutes to stain the cells. After the Chemotaxicell chamber was washed with distilled water and dried, the pigment was extracted with a mixed solution of 200 μL of 1% SDS and 1% triton X100. 150 μL of the extract was transferred to a 96-well microplate, and its absorbance at 590 nm was determined.
(§1) The aptamer shown by SEQ ID NO:4 is 77 nucleotides long, having the 2′ position of the ribose of the pyrimidine nucleotide thereof fluoro-substituted. To enable the chemical synthesis, to reduce the toxicity, and to improve the stability in the blood, miniaturization and stabilization of this aptamer were performed. The operations of miniaturization and stabilization were performed on the basis of the secondary structure estimated by the MFOLD program, and the activity was evaluated by a cell migration inhibition experiment. In the cell migration inhibition experiment, the RNA concentration was 100 nM or 500 nM. Since some errors occur in experimental results depending on cell condition, a previously assayed sample was included as a positive control in each measurement.

Compared with B1, B2 is higher in activity: 94 % of SEQ 4 inhibition for the first, 100 % of SEQ 4 inhibition for the second.

Compared with B3, B4 is higher in activity: 68 % of SEQ 4 inhibition for the first, 97 % of SEQ 4 inhibition for the second.

Going from B5 to B6, the activity rises from 57 % of SEQ 4 inhibition to 81 % of SEQ 4 inhibition.

First: B7
Second: B8
The activity of the first is lower: 88 % of SEQ 4 inhibition for the first, 100 % of SEQ 4 inhibition for the second.

First: B9
Second: B10
The activity of the first is lower: 100 % of SEQ 4 inhibition for the first, 110 % of SEQ 4 inhibition for the second.

First: B11
Second: B12
The activity of the first is lower: 91 % of SEQ 4 inhibition for the first, 100 % of SEQ 4 inhibition for the second.

Compared with B13, B14 is higher in activity: 61 % of SEQ 4 inhibition for the first, 100 % of SEQ 4 inhibition for the second.

With B15 the activity was 75 % of SEQ 4 inhibition.

Target: T1, midkine (full-length)
Assay: cell_activity; 500 nM RNA
Settings: tags: expressed in yeast
Remark: another data set of the same source
Procedure: 30 μL of 1.5 μM midkine was applied to the outer surface of the membrane of Chemotaxicell (membrane pore diameter 8 μm, manufactured by Kurabo) to immobilize the midkine to the outer surface of the membrane. The midkine-immobilized Chemotaxicell was placed on a 24-well culture plate containing 500 μL of a medium (supplemented with 0.3% bovine serum albumin, Dulbecco's Modified Eagle's medium) supplemented with each RNA aptamer added thereto at 100 nM. 200 μL of UMR106 cells were placed in the inner layer of the Chemotaxicell chamber at a density of 1×10⁶ cells/mL, and cultured at 37° C. for 4 hours. The cells remaining in the inner layer of the Chemotaxicell chamber were removed, and the cells that had infiltrated and adhered to the midkine-applied surface were fixed with methanol. The Chemotaxicell chamber was immersed in a 1% aqueous solution of Crystal Violet for 30 minutes to stain the cells. After the Chemotaxicell chamber was washed with distilled water and dried, the pigment was extracted with a mixed solution of 200 μL of 1% SDS and 1% triton X100. 150 μL of the extract was transferred to a 96-well microplate, and its absorbance at 590 nm was determined.
as §1, with “NO:5” for “NO:4”, “2′-position” for “2′ position”, “nucleotide” for “nucleotide thereof”, “The RNA concentration in” for “In”, “experiment” for “experiment, the RNA concentration”

B16 and B17 are the same in activity: 100 % of SEQ 40 inhibition for the first, 100 % of SEQ 40 inhibition for the second.

Going from B18 to B19, the activity falls from 100 % of SEQ 40 inhibition to 70 % of SEQ 40 inhibition.

Going from B20 to B21, the activity falls from 100 % of SEQ 40 inhibition to 97 % of SEQ 40 inhibition.

Compared with B22, B23 is lower in activity: 100 % of SEQ 40 inhibition for the first, 53 % of SEQ 40 inhibition for the second.

First: B24
Second: B25
The activity of the first is higher: 84 % of SEQ 40 inhibition for the first, 60 % of SEQ 40 inhibition for the second.

Compared with B26, B27 is higher in activity: 69 % of SEQ 40 inhibition for the first, 92 % of SEQ 40 inhibition for the second.

Going from B28 to B29, the activity rises from 51 % of SEQ 40 inhibition to 110 % of SEQ 40 inhibition.

Compared with B30, B31 is lower in activity: 100 % of SEQ 40 inhibition for the first, 91 % of SEQ 40 inhibition for the second.

B32 and B33 are the same in activity: 100 % of SEQ 40 inhibition for the first, 100 % of SEQ 40 inhibition for the second.

B34 and B35 are the same in activity: 100 % of SEQ 40 inhibition for the first, 100 % of SEQ 40 inhibition for the second.

Going from B36 to B37, the activity rises from 72 % of SEQ 40 inhibition to 110 % of SEQ 40 inhibition.

First: B38
Second: B39
The activity of the first is lower: 44 % of SEQ 40 inhibition for the first, 60 % of SEQ 40 inhibition for the second.

In the case of B40, the activity is reported as 100 % of SEQ 40 inhibition.
